Data taken from the DeepSol protein solubility set.

Assay: soluble on expression in E. coli; label from the status in PepcDB or PDB records

For “SSKEAFDELSVLSAIYCEQGEFEVLEESPEKGVVFRVHTLIDNNEKTPLDIIFHISPEYPNTPPDISISSNHLSRRQCHDLRRSLLDTAQSLPAEPMVHGLMLWLQENFSDLIKTSSCHSAEVRPETTEETWTALLHLDHMRSKAKYIKLIEKWTLELRLTGRLFTGKLILILLQGTKENIKQYIHLLKSVKVDVDSSGKRCKEKMMSVLCEIPKPEDKIMMTTFEVKDILSLDDLRREFDLIGLNELYHQFVSSLT”, which “soluble on expression in E. coli” value is on record?
Its value is “soluble”.

Which “soluble on expression in E. coli” value does the source give for “GIDPFTMLRPRLCTMKKGPSGYGFNLHSDKSKPGQFIRSVDPDSPAEASGLRAQDRIVEVNGVCMEGKQHGDVVSAIRAGGDETKLLVVDRETDEFFKKCRVIPSQEHLNGPLPVPFTNGEIQKENSREALAEAALESPRPALVRSASSDTSEELNSQDSPPKQDSTAPSSTSSSDPILDFNISLAMAKERAHQKRSSKRAPQMDWSKKNELFSNL” here?
Its value is “soluble”.

For “MPVEITVKELLEAGVHFGHERKRWNPKFARYIYAERNGIHIIDLQKTMEELERTFRFIEDLAMRGGTILFVGTKKQAQDIVRMEAERAGMPYVNQRWLGGMLTNFKTISQRVHRLEELEALFASPEIEERPKKEQVRLKHELERLQKYLSGFRLLKRLPDAIFVVDPTKEAIAVREARKLFIPVIALADTDSDPDLVDYIIPGNDDAIRSIQLILSRAVDLIIQARGGVVEPSPSYALVQEAEATETPEGESEVEA”, which “soluble on expression in E. coli” value is on record?
The value was “soluble”.

Which “soluble on expression in E. coli” value does the source give for “TRDFMWRLGLNLTHYKNVVTDLPLKDMPVSGVHKLAVGRSVYDFYMKKWAGVDPENGDPLWYKNVKDANNKITGRTTTNDYAQADYYYTGKSSLPKVYGGFNTAFSYKGFELSTIFAYSIGNYIVDRDVTMLWHNGSSTGRAWSTEILNRWTPENRYTDVPALKTVSNSWNANSTRNLFNNSFLRMKNITLSYNFPQPMIKKISLNSLQLFVQADNLLTVSKNQGLDPEQDISGLTYYRYPAMRSISGGINVSF” here?
The value was “not soluble”.

Which “soluble on expression in E. coli” value does the source give for “MSLADIIIHNGSLITFDEARPQAQALAIQGGMIAAVGSDAEILALAGPETRLIDAGGGTVLPGFIDSHVHLFGGSVELDCLSLYGVKGLDAMRAAIQPYAQANPDDALVFCVMADYDILGTGHTLTRHDLDSILADRPLAMFAPDHHTVWANTAALEATGLLQGGEVDAGSLIVLGEDGLANGELLEPGAYGPILGLTRHGGREMLGLTTGKDPEPPATPDQRARDKDVIARGLAHCAAQGITGLHLMDGNRYQLELLTELEAEGRLLCRCEVPFHMKGTDPVERMTAEAPAMRAAYRGDKVRCNHLKMFIDGVIESGTALMLRPYPGELGANDNTGDEVFTQEHFTACCVEADRLGFQIAVHAIGDAGVRRTIDAFEAARRANGTRDSRHRIEHIEVIHPDDIPRLAELDIVASLQPGHAPRGHVFPPGAVGQYLHPDQIVGAYAWQTIRETGARVVFSTDWPVIPVDVMPSLRAAIAPLDLGPDWPDQSQSLMDTLASYTRDNAWVEFNEDSKGRLKVGMAADIAVLSHDLTALAPDDITQAAAMVTIMDGAVTYQREGHHHHHH” here?
The value was “soluble”.

With “MSLSDKTMTADEAVSRLRSGMTLGIGGWGSRRKPMALVRALLRSGITDLTVVSCGGPDVGMLAAAGRIRKLVAAFVTLDSIPLEPHYRAARERGALELMEIDEAMFLWGLRAAAGRLPFLPVRAGIGSDVMRVNPGLRTITSPYVDGETFVAMPALRLDAALVHLNRADRLGNGQYLGPDPYFDDLFCEAADTAYVSCERVVDTAELTKEAAPQTLLVKRHTVTGVVEAPNGADFTSCVPDYGRDEALQRYYATTPWPEFAERFLGGGEPAYRSAVQDWRKEREGHHHHHH” as the sequence, how does the “soluble on expression in E. coli” value read?
Its value is “soluble”.

Which “soluble on expression in E. coli” value does the source give for “MAHHHHHHMSCLNVQPVQLPITNKFRNLPAGKPSHRHESTFCRFFSDTTEKECKGSRRNINHRNKSSIFDNVEENDIIDNTKINQYNNVKKRFVSNNSLEFKKTFQKNINYVPNEKYGKKNIPDVRNLYIFSRQELNSDTKERKSSKKISNYSLEKNPNKWGVDVLKYNLPSPKKIYRHVDNLTTCLVPKISEDSFIPKKNKKYYVTHLEKSLCPKENILLLNSKKKLIHLHQSKLEMNCVPKDYEQEINKNKPVFLERNLNNNLIPIVECKRRTFHVNDTCKNKQCSINFSCERKPSPFRSGKRIGYIFTRNDNPTFFF” here?
Its value is “not soluble”.

Which “soluble on expression in E. coli” value does the source give for “PLNEVVRLHGSSGTSGKPTVVAYTQKDLEHWSSIIARSIYMAGGRKGDLLHNAYGYGLFTGGLGLHGGSEKLGCVTVPISGGNTQRQITLIQDFKPRVICGTPSYIMNIGETMKKMGIDPASTSIQYAILGSEPWSEEMRKNLETMFNMKAMDIYGLSEVIGPGVGMEC” here?
The value was “not soluble”.

For “GPGSMTTSDELPANGELDQPERIPDVVECERLKKAGNDLFAADRVAEALELYREAIKHAPLKPVKKPTQHRQDEVPPCGSEGTAQNSIGESSVVSEKSSAPGTEKSSKVGADDAAQDGDDDGIDYTLTSQVYCNAGLCLSKQGMPEDAITHLSEAIRHNKQYSKAYYRRAECYYVLGKWSNAYGDYEEYEKLGGTLDAGSQDRKRQAKAKVDEEMQKMLGELKNMGNRFLNYFGLSTDNFKFDKDPNTGGYSVRFEQ”, which “soluble on expression in E. coli” value is on record?
The value was “not soluble”.

For “MGSDKIHHHHHHMTQQNGKVYLVGAGPGDVAYLTVKAYNLLATAQVLVYDALVDEQLLQCVSPDCLKLDVGKRGGKPSTPQADINHLLVKYCQEGALVVRLKSGDPFIFGRCTSEIEALKAAGCKFEVVPGISSSIAAPLLAGIPLTDPVMSRCFAVLTAHEPEVLDWEALSRLDTLVILMGGKNLADIINELLRRGQSHLTPIAIIRWAGTPSQQIWTGQLGDILEQTRGLSLSPAVIVIGEVVGLRKYLQPEKIFPENSTTPMSSNQPLTGKTILVTRSSGQSSQFSDRLTTLGATVIEMPALEIGSPSSWEELDQAIANLSQFEWLILTSTNGVDYFFERLNLQGKDTRALAGVKIAVVGEKTSQSLKQRGIQADFIPPNFVADSLVEHFPESLLNKKILFPRVESGGREILVKELSAKGAEVIEVAAYQSCCPSSIPPAAELALKNHTIDIITFASSKTVQFFHQLVDNIFPHNIPNTLAGICIASIGPQTSKTCHTLLGRVDVEAEEYTLDGLTQSIINWALKV”, which “soluble on expression in E. coli” value is on record?
Its value is “not soluble”.

With “MKEEEKTRLVIVQGPTASGKSALALELAERIGGEIVNADSMQVYRGMDIGTAKPSQEERRRVPHHLYDIVDPKVNFTAADFREHASRAIADIERRGKRVILVGGTGLYIRILTQGLVASPGGDDNIRRELEDQAHGEGLESLHRRLAAVDPVAAARLHPNDGVRIVRALEVFLLTGRPLSAFQEAHRFADEPYRCLKLGITVERELLYRRVEERVDRMIAEGLVEEVRGLLSAGYPATLKAMGSIGYREICAHLAGEFSLDEAMRLIKQNTRQYAKRQMTWFRRDSEIIWVEYPGKFDSILSTVMGFYHLEHHHHHH” as the sequence, how does the “soluble on expression in E. coli” value read?
Its value is “soluble”.

Which “soluble on expression in E. coli” value does the source give for “MAQQTNVAGQKTEKQRKAPFRADHVGSLLRSVPVKEARQKKAAGEMTAEQLRDIENQEITRIVEKQKEIGLDVVTDGEFRRSWWHYDFLEGLDGVEPFIPAEGIQFHNTKTKARSIKVTGKLDFTSHPALGDYQFLHEIAGNATPKLTIPSPNMLFFGEKADKGIYDDQEEYFHDMAQAYKKAIKAFYDAGCRYLQLDDTSWSLFFEDKGREVVRALGGDPETLPAIFAKTINDAVADRPDDLTITMHICRGNFRSTWAASGGYDAVAETILDGLNLDGLFLEYDDDRSGNFDPLRFVKRKDLQIVLGLITSKYGELENPEDVNAVSMKPRVLSAWTSYALEHHHHHH” here?
Its value is “not soluble”.

With “MSLLDRLNDDMKQAMKNKEKEKLSVLRMLKAALQNEAIKLGKSPLSEDEELTVLSRELKQRKDSLQEFENAGRSDLVEKVKTEIEIVQSYMPTPLTEDELRELIEQTIKEVGASSKADMGKVMGAIMPKVKGRADGSLVNKLVQQQLS” as the sequence, how does the “soluble on expression in E. coli” value read?
Its value is “soluble”.

Which “soluble on expression in E. coli” value does the source give for “MTDDSAVESKQKKSKIRKGHWIPVVAGFLRKDGKILVGQRPENNSLAGQWEFPGGKIENGETPEEALARELNEELGIEAEVGELKLACTHSYGDVGILILFYEILYWKGEPRAKHHMMLEWIHPEELKHRNIPEANRKILHKIYKALGLEWRK” here?
Its value is “soluble”.

With “MERKISDEECPVRKSMQIFAGKWTLLIIFQINRRIIRYGELKRAIPGISEKMLIDELKFLCGKGLIKKKQYPEVPPRVEYSLTPLGEKVLPIIDEIAKFGMENL” as the sequence, how does the “soluble on expression in E. coli” value read?
The value was “soluble”.

Which “soluble on expression in E. coli” value does the source give for “MSSKNSLSDKIKITFQYIMPKHAISRLVGKLAAAKMGWLTTKLISMFIKAYGINMNEAKLKKASDFDTFNNFFTRELEEGARIIDNDENTICYPVDGAISQQGDIIDGQLIQAKGFNYSVTSLLGGDEKTAAPFQGGKFSCIYLAPKDYHRIHMPMAATLREMIYVPGELFSVNPLTAQNVPDLFARNERVVAIFDTEMGELAMVLVGATIVASIETTWAGTITPPAGKDIFRWQYPKDGADAITFEKGDEMGRFKLGSTVVSTFAPNMISEFATDAGPGTVTRLGEIYAALDKSASLEHHHHHH” here?
Its value is “not soluble”.

Which “soluble on expression in E. coli” value does the source give for “MGSDKIHHHHHHMNPGIEKYEIRFDFDLKDFTYTSHERIHLAGDWKDIKLDAVRLSVDKVTCNGQPMRFETGQDTVTVKGSFHDKDVIDIDFHAKVSDTLMGLYLSRTKEGTMITTQFESNGARMAFPCVDHPAYKAVFAITVVIDKDYDAISNMPPKRIEVSERKIVEFQDTPKMSTYLLYIGVGKFKYATDKYRDIDLILVSLKDIKSKYPLEIARKSIEFYESYFGIPYALPKMHLISVPEFGAGAMENWGAITFREVALMATENSGSIMKQNAAITIAHEIAHQWFGDLVTMKWWNDLWLNESFATFMSYKTVDSFSKQWDVFADFIRSETGGALRSDSLKNTHPIEVDVKDPDEISQIFDEISYGKGASILRMIEDYAGYEEFRKGISKYLNDHRYGNAEGSDLWTAIEDVSGKPVKRVMEYWIKNPGYPVVSVVKSGNKFRLTQEQFFLDGTRGQGKWPIPLTVMTKSGKKAMLMEESAEIEDMVKVNVNSSGFYRVSYDGESFETVMKNYSKLSNLDRWGLISDLYAFLISGRVSVDDYLARIKGFFEDSDHLIVEEIASQLTGLYLLKPDSNRIRETAASYLSRQVVALGDKQKGEDDKISKIRGIVTQDLAMVDDHFASDLARKFSTLAEDPDLALAKSIAAAKAYGISELASAADKYTDDEIRVRIIAAMGWCSPSDLKSVFELIDKGTIRKQDMLYVFSNMPANPKGRDFFFSNIDRIVALMEHAFEGTGYTSRILETAIPYLGLARYEDVKKKAEQIRKPSYNVGINKGLETLEIVRKLYNKL” here?
Its value is “not soluble”.

Which “soluble on expression in E. coli” value does the source give for “MSLSDLFTTIKGQVTGKNVRIVLPEGTDERIVGAAARLQKENIVKPILLGNKAEIEAKAKEIGVSVEGIAIHEPATDPLFDELVAAFVERRKGKATEEAARKMLVDPNYFGTMLVYTGKAEGLVSGAAHSTGDTVRPALQIIKTKPGVSKVAGAMIMVRGEERYLFSDVAINIAPVAADLAENAIVSAETAEIFGIDPRVAMLSFSTKGSAKSDETEKVVEATALAKEKAPELTLDGEFQFDAAFVPTVAEKKAPGSVIKGDANVFIFPSLEAGNIGYKIAQRLGNFEAVGPILQGLNAPVNDLSRGCNTDDVYNLTLITAAQAVNKEGHHHHHH” here?
Its value is “soluble”.

Which “soluble on expression in E. coli” value does the source give for “MKVVIASDHGGMNIRKELVSLLEELNIEYIDLGCECEAGSVDYPDFAFPAAEMVANGEVDRGILVCGTGIGMSIAANKVNGIRCALVHDTFSARATREHNDTNMLAMGERVIGAGLARDIAKIWLTTEFEGGRHENRVGKIKTYEAK” here?
Its value is “not soluble”.

With “TVEKSVVFKAEGEHFTDQKGNTIVGSGSGGTTKYFRIPAMCTTSKGTIVVFADARHNTASDQSFIDTAAARSTDGGKTWNKKIAIYNDRVNSKLSRVMDPTCIVANIQGRETILVMVGKWNNNDKTWGAYRDKAPDTDWDLVLYKSTDDGVTFSKVETNIHDIVTKNGTISAMLGGVGSGLQLNDGKLVFPVQMVRTKNITTVLNTSFIYSTDGITWSLPSGYCEGFGSENNIIEFNASLVNNIRNSGLRRSFETKDFGKTWTEFPPMDKKVDNRNHGVQGSTITIPSGNKLVAAHSSAQNKNNDYTRSDISLYAHNLYSGEVKLIDDFYPKVGNASGAGYSCLSYRKNVDKETLYVVYEANGSIEFQDLSRHLPVIKSYN” as the sequence, how does the “soluble on expression in E. coli” value read?
Its value is “soluble”.
